The text below walks through data of US20260193376A1.

pKd: −log10 of the molar value.

The target of assay [1] is human plasma-derived Factor IXa (human) (UniProt P00740). As to the kind of experiment: cell-based or functional assay.
Assay [2] has the same target. As to the kind of experiment: FXa generation assay at eight OA antibody concentrations, fit to the quadratic binding equation.
In assay [3] the target is human coagulation Factor X (human) (UniProt P00742). Description: ITC, 37 °C, pH 7.4, antibody injected into FX. (In ITC the heat of successive injections is recorded.)
Chain of human coagulation Factor X (human) (P00742 41-179, chain 1 of 2): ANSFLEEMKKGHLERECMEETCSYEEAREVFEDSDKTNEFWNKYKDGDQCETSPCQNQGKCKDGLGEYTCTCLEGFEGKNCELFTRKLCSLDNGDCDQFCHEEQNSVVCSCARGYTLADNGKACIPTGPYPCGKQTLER
Chain of human coagulation Factor X (human) (P00742 183-488, chain 2 of 2): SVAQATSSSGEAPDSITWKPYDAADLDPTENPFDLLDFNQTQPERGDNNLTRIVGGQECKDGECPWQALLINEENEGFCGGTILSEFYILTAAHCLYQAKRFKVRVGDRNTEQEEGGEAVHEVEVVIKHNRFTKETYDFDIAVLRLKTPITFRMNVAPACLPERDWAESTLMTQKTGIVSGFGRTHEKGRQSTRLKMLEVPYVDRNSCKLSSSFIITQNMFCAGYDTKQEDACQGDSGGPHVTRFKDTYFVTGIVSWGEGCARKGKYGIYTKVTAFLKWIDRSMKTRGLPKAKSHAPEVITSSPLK
The target in assay [4] is human coagulation Factor IX (human) (UniProt P00740). Description: ITC, 37 °C, pH 7.4, antibody injected into FIX.
Chain of human coagulation Factor IX (human) (P00740 47-461 T194A limits assumed): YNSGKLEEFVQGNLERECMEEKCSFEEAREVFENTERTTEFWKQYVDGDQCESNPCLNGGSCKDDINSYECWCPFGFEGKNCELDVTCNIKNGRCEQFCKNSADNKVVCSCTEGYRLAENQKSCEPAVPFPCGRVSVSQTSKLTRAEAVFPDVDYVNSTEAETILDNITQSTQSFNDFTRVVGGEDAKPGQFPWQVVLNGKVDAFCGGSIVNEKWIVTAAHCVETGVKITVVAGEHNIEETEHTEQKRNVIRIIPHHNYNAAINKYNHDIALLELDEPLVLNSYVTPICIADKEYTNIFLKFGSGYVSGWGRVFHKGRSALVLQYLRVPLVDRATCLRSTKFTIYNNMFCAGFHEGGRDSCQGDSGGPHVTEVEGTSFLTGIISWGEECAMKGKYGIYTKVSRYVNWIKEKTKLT
In assay [5] the target is human plasma-derived Factor IXa (human) (UniProt P00740). As to the kind of experiment: ITC, 37 °C, pH 7.4, antibody injected into FIXa.

One may read the pKd as the negative decadic logarithm of the Kd, by convention in mol/L. Low values mean a large Kd, high ones a small Kd.

Chain of human plasma-derived Factor IXa (human) (P00740 47-191, chain 1 of 2): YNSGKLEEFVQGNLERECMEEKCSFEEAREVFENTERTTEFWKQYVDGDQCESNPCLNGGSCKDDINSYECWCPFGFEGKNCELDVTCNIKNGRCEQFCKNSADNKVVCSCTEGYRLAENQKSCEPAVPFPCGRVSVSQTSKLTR
Chain of human plasma-derived Factor IXa (human) (P00740 227-461, chain 2 of 2): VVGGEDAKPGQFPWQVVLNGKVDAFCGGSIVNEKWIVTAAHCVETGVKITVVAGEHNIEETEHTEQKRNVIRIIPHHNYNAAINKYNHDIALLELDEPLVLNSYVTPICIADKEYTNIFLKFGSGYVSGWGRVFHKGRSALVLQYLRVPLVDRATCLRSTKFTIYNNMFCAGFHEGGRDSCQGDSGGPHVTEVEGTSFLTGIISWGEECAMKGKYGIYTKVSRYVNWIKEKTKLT

Regarding “one-armed (OA) ACE910 anti-FIXa antibody”, the Stimulation Index, FXa generation assay, estimated at full FIXa saturation in assay [1] was 1370 fold. This substance had a pKd in assay [2] of 5.96.
In assay [1], ACE910 (bispecific antibody) gave a Maximum stimulation (fold), FXa generation assay with bispecific antibody; maximum at 10480 nM of 891 fold. For the same substance, the pKd is 5.62 in assay [3], 5.56 in assay [4] and 5.71 in assay [5].
